Experimental data as given in PMC8458385, “Molecular basis for PICS-mediated piRNA biogenesis and cell division” (Nature Communications, 2021).

B1: SUMO-PICS-1^180-200 (ERH-2 binding motif, EBM) (domain or fragment, C. elegans, UniProt O76616 180-200, looked up)
chain: EDIKDSVFKVLHAEEEPRGAD
notes: Fused to the C-terminus of SUMO (pET28-SUMO); the Kds are for the SUMO fusion; also called PICS-1EBM; source: E. coli BL21(DE3), purified (Ni-NTA); not shown: SUMO, N-terminal, kept
B2: SUMO-PID-1^50-70 (domain or fragment, C. elegans, UniProt Q19541 50-70, looked up)
chain: TNLHRKVTLSDRFELAALGYE
notes: PID-1, C. elegans, residues 50-70; Fused to the C-terminus of SUMO; the Kds are for the SUMO fusion; also called PID-1 fragment; source: E. coli BL21(DE3), purified (Ni-NTA); not shown: SUMO, N-terminal, kept
B3: PICS-1(PID-3) RRM domain (PICS-1^RRM, residues 201-282) (domain or fragment, C. elegans, UniProt O76616 201-282, looked up)
chain: QENMLKISGYPGMLNTFGIAQLLTPYRVNGITITGAQSAVVALENKFQVYQAVQDFNGKKLDRNHKLQVSSLVVSSPAVPLE
notes: Homodimer by gel filtration and in the crystal structure; The methods describe co-expression with TOFU-6^RRM from pETDuet-1 for the complex; the results say that the two domains were purified each for ITC; also called WT; source: E. coli BL21(DE3), purified (Ni-NTA, TEV cleavage, second Ni-NTA, gel filtration); not shown: His tag (inferred from the Ni-NTA purification), N-terminal, cleaved
B4: PICS-1^RRM F217E (domain or fragment, C. elegans, UniProt O76616 201-282, looked up)
chain: QENMLKISGYPGMLNTEGIAQLLTPYRVNGITITGAQSAVVALENKFQVYQAVQDFNGKKLDRNHKLQVSSLVVSSPAVPLE
notes: Cloned into pET28-MHL; also called F217E(PICS-1RRM); source: E. coli BL21(DE3), purified (Ni-NTA, TEV cleavage, second Ni-NTA, gel filtration); not shown: His tag (inferred from the Ni-NTA purification), N-terminal, cleaved
B5: PICS-1^RRM K246A/F247A (domain or fragment, C. elegans, UniProt O76616 201-282, looked up)
chain: QENMLKISGYPGMLNTFGIAQLLTPYRVNGITITGAQSAVVALENAAQVYQAVQDFNGKKLDRNHKLQVSSLVVSSPAVPLE
notes: Cloned into pET28-MHL; Some legends and the strain list print K245A/F246A for the transgene; also called K246A/F247A(PICS-1RRM); source: E. coli BL21(DE3), purified (Ni-NTA, TEV cleavage, second Ni-NTA); not shown: His tag (inferred from the Ni-NTA purification), N-terminal, cleaved
B6: PICS-1^RRM Y250A/Q251A (domain or fragment, C. elegans, UniProt O76616 201-282, looked up)
chain: QENMLKISGYPGMLNTFGIAQLLTPYRVNGITITGAQSAVVALENKFQVAAAVQDFNGKKLDRNHKLQVSSLVVSSPAVPLE
notes: Cloned into pET28-MHL; also called Y250A/Q251A(PICS-1RRM); source: E. coli BL21(DE3), purified (Ni-NTA, TEV cleavage, second Ni-NTA); not shown: His tag (inferred from the Ni-NTA purification), N-terminal, cleaved

What was measured:
ERH-2 = biological target: T1, ERH-2 (C. elegans, UniProt Q20057 1-113); assay: ITC; MicroCal ITC200, 25 °C; 20 mM Tris pH 8.5, 200 mM NaCl or 20 mM MES pH 6.5, 200 mM NaCl; 1-2 mM protein or peptide in the syringe titrated into 30-50 μM protein in the cell; one-site model; Kd mean ± SD of a minimum of two experiments; conditions: both partners purified
T1 construct: ERH-2, C. elegans, amplified from a cDNA library; also called ERH-2 wild type; source: E. coli BL21(DE3), purified (Ni-NTA, TEV cleavage, second Ni-NTA); not shown: His tag (inferred from the Ni-NTA purification), N-terminal, cleaved
T1 sequence (looked up): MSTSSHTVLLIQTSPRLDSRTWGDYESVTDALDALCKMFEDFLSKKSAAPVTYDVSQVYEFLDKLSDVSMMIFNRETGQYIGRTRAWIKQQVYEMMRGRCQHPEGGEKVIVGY

ERH-2 D67A = biological target: T2, ERH-2 D67A (C. elegans, UniProt Q20057 1-113, D67A); assay: as above; conditions: both partners purified
T2 construct: ERH-2, C. elegans, with D67A; Cloned into pET28-MHL; also called D67A(ERH-2); source: E. coli BL21(DE3), purified (Ni-NTA, TEV cleavage, second Ni-NTA); not shown: His tag (inferred from the Ni-NTA purification), N-terminal, cleaved
T2 sequence (looked up): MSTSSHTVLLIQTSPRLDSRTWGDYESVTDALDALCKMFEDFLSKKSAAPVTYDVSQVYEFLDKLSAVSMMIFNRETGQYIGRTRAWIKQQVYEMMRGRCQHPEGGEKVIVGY

[1] = biological target: T3, ERH-2^1-103-(Gly-Ser-Ser)7-PICS-1^180-200 fusion protein (C. elegans, UniProt Q20057 1-103; O76616 180-200); assay: as above; conditions: both partners purified
T3 construct: ERH-2, C. elegans, residues 1-103; 21-aa linker (Gly-Ser-Ser)7; PICS-1 (PID-3), C. elegans, EBM, residues 180-200; the methods describe only the 1-103 fusion; also called ERH-2-(GSS)7-PICS-1180-200; ERH-2-(GSS)7-PICS-1; source: E. coli BL21(DE3), purified (Ni-NTA, TEV cleavage, second Ni-NTA, Superdex 75); not shown: His tag (inferred from the Ni-NTA purification), N-terminal, cleaved
T3 chain: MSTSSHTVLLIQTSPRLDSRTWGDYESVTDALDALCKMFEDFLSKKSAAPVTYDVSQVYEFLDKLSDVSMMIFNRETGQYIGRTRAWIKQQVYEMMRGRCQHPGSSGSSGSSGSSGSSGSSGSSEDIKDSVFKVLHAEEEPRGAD

[2] = biological target: the molecule itself; assay: SEC; gel filtration of PICS-1^RRM wild type and F217E alone, HiLoad 16/600 Superdex 75; 20 mM Tris, 200 mM NaCl (pH 8.5 in the methods, pH 7.5 in the legend)
TOFU-6^RRM D26A/W27A = biological target: T4, TOFU-6^RRM D26A/W27A (C. elegans, UniProt Q09293 2-92, D26A | W27A); assay: ITC; MicroCal ITC200, 25 °C; 20 mM Tris pH 8.5, 200 mM NaCl or 20 mM MES pH 6.5, 200 mM NaCl; 1-2 mM protein or peptide in the syringe titrated into 30-50 μM protein in the cell; one-site model; Kd mean ± SD of a minimum of two experiments; conditions: both partners purified
T4 construct: TOFU-6, C. elegans, RRM domain, residues 2-92, with D26A and W27A; Cloned into pET28-MHL; also called D26A/W27A(TOFU-6RRM); source: E. coli BL21(DE3), purified (Ni-NTA, TEV cleavage, second Ni-NTA); not shown: His tag (inferred from the Ni-NTA purification), N-terminal, cleaved
T4 sequence (looked up): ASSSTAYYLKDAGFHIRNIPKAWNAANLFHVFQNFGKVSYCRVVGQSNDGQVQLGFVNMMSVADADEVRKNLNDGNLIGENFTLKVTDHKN

[3] = biological target: T5, TOFU-6 RRM domain (TOFU-6^RRM, residues 2-92) (C. elegans, UniProt Q09293 2-92); assay: as above; conditions: both partners purified
T5 construct: TOFU-6, C. elegans, RRM domain, residues 2-92; source: E. coli BL21(DE3), purified (Ni-NTA, TEV cleavage, second Ni-NTA); not shown: His tag (inferred from the Ni-NTA purification), N-terminal, cleaved
T5 sequence (looked up): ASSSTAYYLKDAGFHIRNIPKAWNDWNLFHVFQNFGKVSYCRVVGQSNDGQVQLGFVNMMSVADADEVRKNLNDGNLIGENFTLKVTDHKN

Binder | stoichiometry N (ERH-2) | stoichiometry N [3] | Kd [3] [µM] | also measured
B1 | 0.7 |  |  | stoichiometry N (ERH-2 D67A): 0.8
B2 | 1 |  |  | stoichiometry N [1]: 1.3
B3 |  | 1.1 |  | binding result [2]: binds; Kd (TOFU-6^RRM D26A/W27A): 30 µM; stoichiometry N (TOFU-6^RRM D26A/W27A): 0.7
B4 |  | 0.7 |  | 
B5 |  | 1.1 | 17 | 
B6 |  | 1.2 | 21 | 
